{"source": "patent US20160122426A1", "about": "(DONG A SOCIO, published 2016)", "binders": {"B1": {"name": "HF2-26 (antibody, V domains shown)", "VH": "EVQLVESGGGLVQPGGSLRLSCAASRFNMRSHGMQWVRQAPGKGLEYVAGISSDGSWIRVQAAVEGRFTISRDDSKNTAYLQMNSLRAEDTAVYYCARDFSTGYGADSIDAWGQGTLVTVSS", "VL": "DIQMTQSPSSLSASVGDRVTITCTAPADSAYGYGWYQQKPGKAPKTLIYWDDKRPSGVPSRFSGSRSGTDFTLTISSLQPEDFATYYCGAWEYSGGVGIFGQGTKVEIK"}, "B2": {"name": "clone F (antibody, V domains shown)", "VH": "AVTLHESGGGLQTPGGALSLVCKASGFTFSSHGMQWVRQAPGKGLEYVAGISSDGSWTGYGAAVKGRATISRDNGQSTVRLQLNNLRAEDTATYYCARDFSTSYGADSIDAWGHGTEVIVSS", "VL": "LTQPSSVSANPGETVKITCSGGSNSAYGYGWYQQKSPGSAPVTLIYWDDKRPSDIPSRFSGSASGSTATLTITGVRAEDEAVYFCGAWEYSSDVGIFGAGTTLTVL", "notes": "Clone from an immunized chicken scFv phage library; also called mother clone F; F clone"}}, "key": {"human VEGF [1]": {"target": "T1, human VEGF (human, UniProt P15692-4 27-191)", "T1 construct": "Bought recombinant protein; also called hVEGF; human VEGF-A", "experiment": "ELISA, human VEGF coated, absorbance 650 nm [g]"}, "mouse VEGF [2]": {"target": "T2, mouse VEGF (mouse, UniProt Q00731-2 27-190)", "T2 construct": "Bought recombinant protein; also called mVEGF-A; mouse VEGF-A", "T2 sequence (looked up)": "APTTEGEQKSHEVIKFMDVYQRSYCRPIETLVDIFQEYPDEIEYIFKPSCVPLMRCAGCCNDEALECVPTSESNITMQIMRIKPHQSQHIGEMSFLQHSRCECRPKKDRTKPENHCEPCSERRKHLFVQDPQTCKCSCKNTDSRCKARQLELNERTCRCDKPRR", "experiment": "ELISA and BIAcore"}, "human VEGF [3]": {"target": "T1, human VEGF", "experiment": "ELISA and BIAcore"}, "human VEGF [4]": {"target": "T1, human VEGF", "experiment": "ELISA, human VEGF coated, anti-human Fc-HRP, absorbance 450 nm [a]", "method": "1.5 ng of human VEGF diluted in 150 μL of buffer solution was placed in 96-well immune plate (Nunc, USA), and adsorbed at 4° C. overnight, followed by washing 3 times with a buffer solution containing 0.1% Tween 20. Then, they were reacted with a buffer solution including 1% bovine serum albumin (Sigma, USA) for 1 hr at room temperature, and washed 3 times. Then each well was treated with 150 μL of serially diluted antibody (1 ng/mL, 10 ng/mL, 30 ng/mL, 100 ng/mL, 1000 ng/mL and 3000 ng/mL) They were allowed to react for 1 hr at room temperature so that antigens may bind to antibodies, followed by washing 3 times with a buffer solution.\nEach well was treated at 150 μL per well with anti-human immunoglobulin Fc-HRP antibody (AbSerotec, USA) diluted 1:20000 and allowed to react for 1 hr at room temperature. After the reaction was completed, washing was performed 3 times with a buffer solution, followed by addition of 150 μL of TMB (Sigma, USA) and color development for 10 min. The reaction was terminated with 1N sulfuric acid solution, and absorbance was measured at 450 nm using a spectrophotometer (Molecular Device, USA)."}, "mouse VEGF [5]": {"target": "T2, mouse VEGF", "experiment": "ELISA, 0.2 µg/ml VEGF coated, scFv or IgG serially diluted", "method": "ELISA plates were coated with 0.2 μg/ml of human VEGF and mouse VEGF (R&D systems, USA) respectively, and the purified proteins obtained in Example 5 in the form of scFv expressed by HB2151 or IgG expressed by 293F cells were incubated at serially diluted concentrations."}}, "data": [{"binder": "B1", "values": [{"measurement": "EC50 (read off the curve)", "setting": "human VEGF [1]", "value": "~300", "unit": "pM"}, {"measurement": "fold affinity over mother clone F", "setting": "mouse VEGF [2]", "value": "≥ 10", "unit": "times"}, {"measurement": "fold affinity over mother clone F", "setting": "human VEGF [3]", "value": "≥ 10", "unit": "times"}]}, {"binder": "B2", "values": [{"measurement": "binding result", "setting": "human VEGF [4]", "value": "binds"}, {"measurement": "binding result", "setting": "mouse VEGF [5]", "value": "binds"}]}]}
